Data as given in the Immune Epitope Database (IEDB).

Tests used:
[1] = target: HLA-A*68:02; test: IEDB peptide-MHC binding, cellular MHC/competitive/fluorescence; ≥ and ≤ were set here for values at or beyond the usual limits of such assays
[2] = target: HLA-A*02:06; test: IEDB peptide-MHC binding, purified MHC/competitive/radioactivity; ≥ and ≤ were set here for values at or beyond the usual limits of such assays
[3] = target: HLA-A*02:01; test: as above
[4] = target: HLA-A*02:03; test: as above
[5] = target: HLA-A*02:02; test: as above
[6] = source organism: Hepacivirus hominis
[7] = source organism: Vaccinia virus WR

| Sequence | IC50 [1, 6] | IC50 [2, 6] | IC50 [3, 6] | IC50 [4, 6] | IC50 [5, 6] | IC50 [1, 7] | IC50 [2, 7] | IC50 [3, 7] | IC50 [4, 7] | IC50 [5, 7] | further results |
| --- | --- | --- | --- | --- | --- | --- | --- | --- | --- | --- | --- |
| HLDGEVLSL | – | – | – | – | – | – | – | – | – | – | IC50 ([1]; source organism: SARS-CoV1): 13.6 µM; IC50 ([2]; source organism: SARS-CoV1): 0.16 µM; IC50 ([3]; source organism: SARS-CoV1): 0.067 µM; IC50 ([4]; source organism: SARS-CoV1): 0.131 µM; IC50 ([5]; source organism: SARS-CoV1): 0.066 µM |
| VLAGYGAGI | 14.7 µM | 2.5 µM | 0.408 µM | 0.018 µM | 0.011 µM | – | – | – | – | – | – |
| GLIHACMLV | 37.4 µM | 0.012 µM | 0.0013 µM | 0.0019 µM | 0.0015 µM | – | – | – | – | – | – |
| YLSGTDDEVI | – | – | – | – | – | 15.8 µM | 0.947 µM | 0.22 µM | 0.211 µM | 0.0063 µM | – |
| YLGHSAGFTA | – | – | – | – | – | 8.21 µM | 0.144 µM | 0.021 µM | 0.086 µM | 0.016 µM | – |
| RLFTRCAVI | – | – | – | – | – | 6.64 µM | 2.82 µM | 0.209 µM | 0.249 µM | 0.094 µM | – |
| VMWKCLIRL | 7.6 µM | 0.947 µM | 0.053 µM | 0.823 µM | 0.377 µM | – | – | – | – | – | – |
| ALSGVFCGV | – | – | – | – | – | – | – | – | – | – | IC50 ([1]; source organism: SARS-CoV1): 22.5 µM; IC50 ([2]; source organism: SARS-CoV1): 0.05 µM; IC50 ([3]; source organism: SARS-CoV1): 0.013 µM; IC50 ([4]; source organism: SARS-CoV1): 0.012 µM; IC50 ([5]; source organism: SARS-CoV1): 0.0012 µM |
| IAMWLLLLSI | – | – | – | – | – | – | – | – | – | – | IC50 ([1]; source organism: SARS-CoV1): 17.2 µM; IC50 ([2]; source organism: SARS-CoV1): 0.498 µM; IC50 ([3]; source organism: SARS-CoV1): 0.216 µM; IC50 ([4]; source organism: SARS-CoV1): 1.9 µM; IC50 ([5]; source organism: SARS-CoV1): 0.086 µM |
| RLVPGATYAL | 45.8 µM | 0.834 µM | 0.15 µM | 0.834 µM | 0.012 µM | – | – | – | – | – | – |
| VLALYSPPLI | – | – | – | – | – | 14.4 µM | 0.868 µM | 0.055 µM | 0.101 µM | 0.016 µM | – |
| LLLLSVGVGI | 52.6 µM | 0.714 µM | 0.764 µM | 0.605 µM | 2.57 µM | – | – | – | – | – | – |
| MLLIAQAEA | 6.15 µM | 0.645 µM | 0.082 µM | 0.123 µM | 0.141 µM | – | – | – | – | – | – |
| ALLSCLTTPA | ≥ 70 µM | 0.231 µM | 0.161 µM | 0.211 µM | 0.439 µM | – | – | – | – | – | – |
| IALCKVTVPT | – | – | – | – | – | ≥ 70 µM | 0.652 µM | 2.12 µM | 2.22 µM | 1.96 µM | – |
| VMHINSPFKV | – | – | – | – | – | 6.27 µM | 0.393 µM | 0.013 µM | 0.0025 µM | 0.06 µM | – |
| ATLNTLITL | – | – | – | – | – | 5.36 µM | 0.0096 µM | 0.057 µM | 0.577 µM | 0.373 µM | – |
